# Data: the nanobody polyreactivity screen of Harvey et al. (2022)
# Experiment: yeast display, Sf9 membrane polyspecificity reagent, FACS + sequencing; frameworks hold sequencing errors
# Method in brief: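 A synthetic nanobody library was expressed on Saccharomyces cerevisiae BJ5465 by galactose induction for 36–48 hours. The library was stained for 1 hour at 4 °C with 10% biotinylated, detergent-solubilized Sf9 membrane reagent and enriched with streptavidin microbeads before FACS. Low and high (top ~1%) gates were set on anti-HA fluorescence for expression and streptavidin fluorescence for reagent binding, and each polyreactivity label reflects the gate of origin.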
row,Sequence,polyreactivity (PSR sort gate)
1,QVQLVESGGGLVQAGGSLRLSCAASGRIFSIYAMGWYRQAPGKERELVAAIRSRGGRTHYADSVKVRFTISRDNAKNTVYLQMNSLKPEDTAVYFCNAKYFSGDNYWGQGTQVTVSS,high polyreactivity
2,QVQLVESGGGLVQAGGSLRLSCAASGRIFSKNAMGWCRQAPGKERELVAGITSISGSTYYADSVKGRFTISRDNAKNTVYLQMNSLKPEDTAVYYCAARFPHRHYLLYTYDYWGQGTQVTVSS,low polyreactivity
3,QVQLVESGGGLVQAGGSLRLSCAASGRIFSKYAMGWYRQAPGKEREFVASISYRGGSTYYADSVKGRFTISRDNAKNTVYLQMNSLKPEDTAVYYCATRKYADRESDYWGQGTQVTVSS,high polyreactivity
4,QVQLVESGGGLVQAGGSLRLSCAASGRIFSKYAMGWYRQAPGKERELVAAISNGGSTNYADTVKGRFTISRDNAKNTVYLQMNSLKPEDTAVYYCAKQDRVLYGGYDSWGQGTQVTVSS,low polyreactivity
5,QVQLVESGGGLVQAGGSLRLSCAASGRIFSKYAMGWYRQAPGKERELVAAITSGGRTYYADSVKGRFTISRDNAKNTVYLQMNSLIPEDTAVYYCAARYVQVVRKFGYWGQGTQVTVSS,high polyreactivity
6,QVQLVESGGGLVQAGGSLRLSCAASGRIFSLNVMGWYRPAPGKERELVATIRGRGTSTYYADSVKGRFTISRDNAKNTVYLQMNSLKPEDTAVYYCAARGHGAYGYWGQGTQVTVSS,low polyreactivity
7,QVQLVESGGGLVQAGGSLRLSCAASGRIFSLYAMGWYRQAPGKERELDAAITWSSGSTYYADSVKGRFTISRDNAKNTVYLQMNSLKPEDTAVYYCAARVFTLLGYSFEYWGQGTQVTVSS,low polyreactivity
8,QVQLVESGGGLVQAGGSLRLSCAASGRIFSNNAMGWYRQAPGKERELVAAISSSGSTYYADSVKGRFTISRDNAKNTVYLLMNSLKPEDTAVYYCAVVYGYPYLRGYVYGFNYWGQGTQVTVSS,low polyreactivity
9,QVQLVESGGGLVQAGGSLRLSCAASGRIFSPYAMGWYRQAPGKERELVAAINYSGSRTYYADSVTGRFTISRDNAKNTVYLQMNSLKPEDTAVYYCARPWAPSSRGNGYWGLGTQVTVSS,high polyreactivity
10,QVQLVESGGGLVQAGGSLRLSCAASGRIFSRNAMGWYRQAPGKERELVAAISRSGGSTYYADSVKGRFTISRDNAKNTVYLQMNSLKPEDTAVYYCNTRYRPVKGSGPRYDYWGQGTQVTVSS,low polyreactivity
11,QVQLVESGGGLVQAGGSLRLSCAASGRIFSRNAMGWYRQAPGKERELVAAITWRGGNTYYAHSVKGRFTISRDNAKNTVYLQMNSLKPEDTAVYYCAADYLRWAGRYFSWDYDYWGQGTQVTVSS,high polyreactivity
12,QVQLVESGGGLVQAGGSLRLSCAASGRIFSRSAMGWYRQAPGKERELVAAIRWSTGSTNYADSVKGRFTISRDNAKNTVYLQMNSLKPEDTAVYYCNARYYVRPYSPGYYYWGQGTQVTVSS,high polyreactivity
13,QVQLVESGGGLVQAGGSLRLSCAASGRIFSRYAMGWDRQAPGKERELVAAINNGGSTYYADSVKGRFTISRDNAKNTVYLQMNSLKPEDTAVYYCAKLWWSNFKPVEYWGQGTQVTVSS,low polyreactivity
14,QVQLVESGGGLVQAGGSLRLSCAASGRIFSRYAMGWYRQAPGKERELVAAIASSGTTTYYADSVKGRFTISRDIAKNTVYLQMNSLKAEDTAVYYCATSAVRHIYWGQGTQVTVSS,high polyreactivity
15,QVQLVESGGGLVQAGGSLRLSCAASGRIFSRYAMGWYRQAPGKERELVAAIRSNGGRTYYADSVKGRFTISRDNAKNTVYLQMNSLKPEDTAVYYCAAAGGGKVSYRDYDYWGQGTQVTVSS,high polyreactivity
16,QVQLVESGGGLVQAGGSLRLSCAASGRIFSRYAMGWYRQAPGKERELVASIRITGSTYYADSVKGRFTISRDNAKTTVYLQMNSLKPEDTAVYYCAAYQYRLGNIRLNYWGQGTQVTVSS,high polyreactivity

row,Sequence,polyreactivity (PSR sort gate)
1,QVQLVESGGGLVQAGGSLRLSCAASGRIFSRYAMGWYRQAPGKERELVATISSGGGTYYADSVKGRFTISRDTAKNTVYLQMNSLKPEDTAVYYCAAASYSGHGRYDDWGQGTQVSVSS,high polyreactivity
2,QVQLVESGGGLVQAGGSLRLSCAASGRIFSRYAMGWYRQAPGKERELVAVISRSGADTYYADSVKGRFTISRDNAKNTVYLQMNSLKPEDTAVYYCNAYSARRPHPMGYDYWGQGTQVTVSS,high polyreactivity
3,QVQLVESGGGLVQAGGSLRLSCAASGRIFSRYVMGWYRQAPGKEREFFASITWSGSSTYYADSVKGRFTISRDNAKNTVYLQMNSLKPEDTAVYYCAALGLLSPSPCGTHISEYDSWGQGTQVTVSS,low polyreactivity
4,QVQLVESGGGLVQAGGSLRLSCAASGRIFSSNAMGWYRQAPGKEREFVAAISWRTGSTYYADSVKGRFTISRDNAKNTVYLQMNSLKPEDTAVYYCNKRTGSYGYPYYYWGQGTQVTVSS,high polyreactivity
5,QVQLVESGGGLVQAGGSLRLSCAASGRIFSSYAMGWYRQAPGKERELVAAISKSGGNTYYADSVKGRFTISRDNAKNTVYLQMNSLKPEDTAVYYCDAVAPYTLYFWLYYWGQGTHVTVSS,high polyreactivity
6,QVQLVESGGGLVQAGGSLRLSCAASGRIFSSYAMGWYRQAPGKERELVAAISRGGGRTYYADSVKGRFTISRDNAKNTVYLQMNSLKPEDTAVYYCATVVRSAAYAFDYWGQGTQVTVSS,high polyreactivity
7,QVQLVESGGGLVQAGGSLRLSCAASGRIFSSYAMGWYRQAPGKERELVAAISSRGGSTYYADSVKGRFTISRDNAKNTVYLQMNSLKPEDTAVYYCARVKYSGVVYKYDYWGQGTQVTVSS,high polyreactivity
8,QVQLVESGGGLVQAGGSLRLSCAASGRIFSSYDMGWYRQAPGKEPELVAAISRSGARTYYADSVKGRFTISRDNAKNTVYLQMNSLKPEDTAVYYCAAEFRSWGGYRYRFNYWGQGTQVTVSS,high polyreactivity
9,QVQLVESGGGLVQAGGSLRLSCAASGRIFSTYAMGWYRQAPGKERELVAAISWRGSSTYYADSVKGRFTISRDNAKNTVYLQMNSLKPEDTAVYYCNADKANRYDWGQGTQVTVSS,high polyreactivity
10,QVQLVESGGGLVQAGGSLRLSCAASGRIFSTYAMGWYRQAPGKERELVAAISYSGTTTYYADSVKGRFTISRDNAKNTVYLQLNRLKPEDTAVYYCAAYRYSSWAYGRDYYWGQGTQVTVSS,high polyreactivity
11,QVQLVESGGGLVQAGGSLRLSCAASGRIFSVNAMGWYRQAPGKERELVAAITTRGGTTYYADSVKGRFTISRDNAKNTVSLQMNSLKPEDTAVYYCAAESSWYVYWEWAHDYWGQGTQVTVSS,low polyreactivity
12,QVQLVESGGGLVQAGGSLRLSCAASGRIFSVNAMGWYRQAPGKERELVASISWSGGSTYYADSVKGRFTISRDNAKNTVYLQMNSLKPEDTAVYYCARGYWVYYPDGDYWGQGTQVTVSS,low polyreactivity
13,QVQLVESGGGLVQAGGSLRLSCAASGRIFSVNAMGWYRQAPGNERELVAAMTSGDSTNYADSVKGRFTISRDNAKNTVYLQMNSLKPEDNAVYYCNARGSQELWRRKWYHTEYDYWGQGTQVTVSS,low polyreactivity
14,QVQLVESGGGLVQAGGSLRLSCAASGRIFSVYAMGWYRPAPGKERELVAAITRVGSTNYADSVKGRFTISRDNAKNTVYLQMNSLKPEDTAVYYCAASKYGSLSGYWGQGTQVTVSS,high polyreactivity
15,QVQLVESGGGLVQAGGSLRLSCAASGRIFSVYVMGWYRPAPGKERELVAAISGRDGTTYYADSVKGRFTISRDNAKNTVYLQMNSLKPEDTAVYYCAAEDIDFTPMDYWGQGTQVTVSS,high polyreactivity
16,QVQLVESGGGLVQAGGSLRLSCAASGRIFSVYVMGWYRQAPGKERELVAAITRSGGRTYYADSVKGRFTISRDNAKNTVYLQMNSLKPDDTAVYYCAARVKGYAYNYWGQGTQVTVSS,high polyreactivity
